The chains are these.
B1: 1-23 (antibody, V domains shown)
VH: EVQLLESGGGLVQPGGSLRLSCAASGFTFSSYAISWVRQAPGKGLEWVSIISGSGGSTYYADSVKGRFTISRDNSKNTLYLQMNSLRAEDTAVYYCAREGYRDYLWYFDLWGQGTLVTVSS
VL: QSALTQPASVSGSPGQSITISCTGTSNDVGSYNLVSWYQQHPGKAPKLMIYEGNKRPSGVSNRFSGSKSGNTASLTISGLQAEDEADYYCCSYAGSYTVFGGGTKLTVL
notes: also called variant 1-23
B2: 1-24 (antibody, V domains shown)
VH: B1 VH with I34M, S35N
VL: B1 VL with N27S, S31Y, S96G, Y97S, T98V
notes: also called variant 1-24
B3: 1-32 (antibody, V domains shown)
VH: EVQLLESGGGLVQPGGSLRLSCAASGFTFSSYAMYWVRQAPGKGLEWVSAISGSGGSTFYADSVKGRFTISRDNSKNTLYLQMNSLRAEDTAVYYCTRPPYGDYGDYWGQGTLVTVSS
VL: QSALTQPASVSGSPGQSITISCTGTSSDVGGYNLVSWYQQHPGKAPKLMIYEGNKRPSGVSNRFSGSKSGNTASLTISGLQAEDEADYYCCSYAGSSTFPVVFGGGTKLTVL
notes: also called variant 1-32
B4: 1-29 (antibody, V domains shown)
VH: EVQLLESGGGLVQPGGSLRLSCAASGFTFSSYAMYWVRQAPGKGLEWVSAISGSAGSTYYADSVKGRFTISRDNSKNTLYLQMNSLRAEDTAVYYCARDTNDFWSGYSIFDPWGQGTLVTVSS
VL: QSALTQPASVSGSPGQSITISCTGTSSDIGSYNLVSWYQQHPGKAPKLMIYEGTKRPSGVSNRFSGSKSGNTASLTISGLQAEDEADYYCCSYAGSRTYVFGGGTKLTVL
notes: also called variant 1-29
B5: 1-42 (antibody, V domains shown)
VH: EVQLLESGGGLVQPGGSLRLSCAASGVTFSSYAMSWVRQAPGKGLEWVSAITGSGGSTYYADSVKGRFTISRDNSKNTLYLQMNSLRAEDTAVYYCAKHGSGTIFGVVIAKYYFDYWGQGTLVTVSS
VL: B4 VL with I29V, S31R, T54G, G95S, R97S, Y99L
notes: also called variant 1-42
B6: 1-17 (antibody, V domains shown)
VH: B4 VH
VL: B4 VL
notes: also called variant 1-17
B7: 1-2 (antibody, V domains shown)
VH: EVQLLESGGGLVQPGGSLRLSCAASGFTFSSQAMSWVRQAPGKGLEWVSAISGSGGGTYYADSVKGRFTISRDNSKNTLYLQMNSLRAEDTAVYYCAKDRRFGEFDPWGQGTLVTVSS
VL: QSALTQPASVSGSPGQSITISCTGTSSGVGSYNLVSWYQQHPGKAPKLMIYEGIKRPSGVSNRFSGSKSGNTASLTISGLQAEDEADYYCCSYAGSSSFVVFGGGTKLTVL
notes: also called variant 1-2
B8: 1-31 (antibody, V domains shown)
VH: B3 VH with Y35N
VL: B7 VL with G28D, S31K, I54S, K55Q, S97R, S98T, F99P
notes: also called variant 1-31
B9: 1-27 (antibody, V domains shown)
VH: EVQLLESGGGLVQPGGSLRLSCAASGFTFSSYAMTWVRQAPGKGLEWVSAISGSGGGTYYADSVKGRFTISRDNSKNTLYLQMNSLRAEDTAVYYCASSSSWQFDYWGQGTLVTVSS
VL: B7 VL with G28Y, S31H, I54S, K55R, S97Y, S98T, F99H, V100Y
notes: also called variant 1-27
B10: 1-47 (antibody, V domains shown)
VH: B7 VH
VL: B7 VL
notes: also called variant 1-47
B11: 1-10 (antibody, V domains shown)
VH: EVQLLESGGGLVQPGGSLRLSCAASGFTFSSYDMSWVRQAPGKGLEWVSVISGSGGSTYYADSVKGRFTISRDNSKNTLYLQMNSLRAEDTAVYYCAKGPLVGWYFDLWGQGTLVTVSS
VL: B7 VL with G28N, I54T
notes: also called variant 1-10
B12: 1-3 (antibody, V domains shown)
VH: B7 VH
VL: B7 VL with T25I, G28D, I54T
notes: also called variant 1-3
B13: 1-30 (antibody, V domains shown)
VH: B3 VH with Y35T
VL: B7 VL with S27R, G28D, I54T, S97R, S98T, F99P
notes: also called variant 1-30
B14: 1-5 (antibody, V domains shown)
VH: B7 VH
VL: B7 VL with G53A, I54S, S97Y, S98T, V100A
notes: also called variant 1-5
B15: 1-4 (antibody, V domains shown)
VH: B7 VH
VL: B7 VL with G28D, S31T, I54S, K55Q
notes: also called variant 1-4
B16: 1-7 (antibody, V domains shown)
VH: B11 VH
VL: B7 VL with G28D, V29F, I54N, S98T
notes: also called variant 1-7
B17: 1-28 (antibody, V domains shown)
VH: B9 VH with A33G, T35S
VL: B7 VL with I54S, K55Q, S98T, F99H, V100Y
notes: also called variant 1-28
B18: SARS-CoV-2 variant 1-37 (antibody, V domains shown)
VH: B3 VH with S30T, Y35N, S49T
VL: B4 VL
B19: SARS-CoV-2 variant 1-17 (antibody, V domains shown)
VH: B4 VH
VL: B4 VL
B20: SARS-CoV-2 variant 1-29 (antibody, V domains shown)
VH: B4 VH
VL: B4 VL
B21: SARS-CoV-2 variant 1-47 (antibody, V domains shown)
VH: B7 VH
VL: B7 VL

Results on 21 molecules are retold here after patent US20210395344A1 (TWIST BIOSCIENCE, published 2021).

Substitutions are numbered along the chain they refer to.

The target of the first test is T1, Acro COVID S1 (S1N-C82E8) (SARS-CoV-2, UniProt P0DTC2 16-685).
T1 construct: domain: S1
Put plainly: phage ELISA. A general note: An ELISA detects its analyte on a solid surface through an enzyme-linked reagent.
Consider B1, for which the “ELISA fold over background” value came out at 5.1 fold over background.
Regarding B2, the “ELISA fold over background” value was 12.9 fold over background.
In the case of B3, the “ELISA fold over background” value was 11.5 fold over background.
B4: the “ELISA fold over background” value was determined as 1.1 fold over background.
Take B5: the “ELISA fold over background” value was 22.7 fold over background.
For B6, the “ELISA fold over background” value came out at 25.1 fold over background.
With B7, the “ELISA fold over background” value turned out to be 1.8 fold over background.
As to B8, the “ELISA fold over background” value came to 30.4 fold over background.
Same read-out and setting: under B9 stands 1.5 fold over background; under B10, 8.1 fold over background.
B11: the “ELISA fold over background” value was determined as 17.4 fold over background.
Take B12: the “ELISA fold over background” value is 1.6 fold over background.
Consider B13, for which the “ELISA fold over background” value turned out to be 16.8 fold over background.
In the case of B14, the “ELISA fold over background” value is 1.5 fold over background.
For B15, the “ELISA fold over background” value amounted to 1 fold over background.
On the same count and under the same terms, under B16 stands 6.8 fold over background; under B17, 1 fold over background.

In another test the target is T2, Acro COVID S1 (S1N-C82E8) (SARS-CoV-2, UniProt P0DTC2 16-685).
T2 construct: domain: S1 (subunit 1)
Put plainly: phage ELISA.
For the molecule B18, the “specificity ELISA, fold over background” value stood at 11.6 fold over background.
As for B19, the “specificity ELISA, fold over background” value came to 25.1 fold over background.
B20: the “specificity ELISA, fold over background” value is 1.1 fold over background.
For the molecule B21, the “specificity ELISA, fold over background” value turned out to be 8.1 fold over background.

The next test has as its target T1, Acro COVID S1 (S1N-C82E8). Put plainly: phage ELISA. The source holds these as a separate data set.
Consider B1, for which the “ELISA fold over background” value amounted to 5.1 fold over background.
In the case of B2, the “ELISA fold over background” value turned out to be 12.9 fold over background.
With B3, the “ELISA fold over background” value was found to be 11.5 fold over background.
Still for that read-out and setting: the figure for B4 is 1.1 fold over background; for B5 it is 22.7 fold over background.
As for B6, the “ELISA fold over background” value came out at 25.1 fold over background.
Turning to B7, the “ELISA fold over background” value came to 1.8 fold over background.
Turning to B8, the “ELISA fold over background” value is 30.4 fold over background.
On to B9, for which the “ELISA fold over background” value was 1.5 fold over background.
With B10, the “ELISA fold over background” value came out at 8.1 fold over background.
In the case of B11, the “ELISA fold over background” value worked out at 17.4 fold over background.
For the molecule B12, the “ELISA fold over background” value turned out to be 1.6 fold over background.
Take B13: the “ELISA fold over background” value turned out to be 16.8 fold over background.
Consider B14, for which the “ELISA fold over background” value worked out at 1.5 fold over background.
B15: the “ELISA fold over background” value stood at 1 fold over background.
As for B16, the “ELISA fold over background” value amounted to 6.8 fold over background.
Consider B17, for which the “ELISA fold over background” value amounted to 1 fold over background.
